US20090298765A1 (Takeda / Millennium, published 2009)
Non-standard residues stand in square brackets, D forms with d. No end group written: not given here. *: point of attachment. GuAmb = 4-guanidinomethylbenzoyl, N=C(N)NCc1ccc(C(=O)*)cc1; Propanoyl(3-indol-3-yl) = O=C(CCc1c[nH]c2ccccc12)*; Phe(4-F) = N[C@@H](Cc1ccc(F)cc1)C(=O)O; Cyclohexanecarbonyl = O=C(C1CCCCC1)*; Arg(Me) = CNC(=N)NCCC[C@H](N)C(=O)O; 4Pal = N[C@@H](Cc1ccncc1)C(=O)O; d3Pal = N[C@H](Cc1cccnc1)C(=O)O; d4Pal = N[C@H](Cc1ccncc1)C(=O)O; Cha = N[C@@H](CC1CCCCC1)C(=O)O; amidino = N=C(N)*; azaGly = NNC(=O)O

B1: [D-Tyr1,D-Asn2,Pya(4)3,AzaGly7,Arg(Me)9,Phe(4F)10]MS10 (peptide)
peptide: [dY][dN][4Pal]NSF[azaGly]L[Arg(Me)][Phe(4-F)]-NH2
modifications: N-terminus assumed
SMILES: CNC(=N)NCCC[C@H](NC(=O)[C@H](CC(C)C)NC(=O)NNC(=O)[C@H](Cc1ccccc1)NC(=O)[C@H](CO)NC(=O)[C@H](CC(N)=O)NC(=O)[C@H](Cc1ccncc1)NC(=O)[C@@H](CC(N)=O)NC(=O)[C@H](N)Cc1ccc(O)cc1)C(=O)N[C@@H](Cc1ccc(F)cc1)C(N)=O
notes: also called Compound No. 317
B2: des(1-2)-[AzaGly7,Arg(Me)9]MS10 (peptide)
peptide: WNSF[azaGly]LR(Me)F-NH2
modifications: N-terminus assumed
SMILES: CNC(=N)NCCC[C@H](NC(=O)[C@H](CC(C)C)NC(=O)NNC(=O)[C@H](Cc1ccccc1)NC(=O)[C@H](CO)NC(=O)[C@H](CC(N)=O)NC(=O)[C@@H](N)Cc1c[nH]c2ccccc12)C(=O)N[C@@H](Cc1ccccc1)C(N)=O
notes: also called Compound No. 271
B3: des(1-5)-3-(3-Indolyl)propionyl-[AzaGly7,Arg(Me)9]MS10 (peptide)
peptide: {Propanoyl(3-indol-3-yl)}-F[azaGly]L[Arg(Me)]F-NH2
SMILES: CNC(=N)NCCC[C@H](NC(=O)[C@H](CC(C)C)NC(=O)NNC(=O)[C@H](Cc1ccccc1)NC(=O)CCc1c[nH]c2ccccc12)C(=O)N[C@@H](Cc1ccccc1)C(N)=O
B4: des(1-2)-Amidino-[AzaGly7,Arg(Me)9]MS10 (peptide)
peptide: amidino-WNSF[azaGly]L[Arg(Me)]F-NH2
SMILES: CNC(=N)NCCC[C@H](NC(=O)[C@H](CC(C)C)NC(=O)NNC(=O)[C@H](Cc1ccccc1)NC(=O)[C@H](CO)NC(=O)[C@H](CC(N)=O)NC(=O)[C@H](Cc1c[nH]c2ccccc12)NC(=N)N)C(=O)N[C@@H](Cc1ccccc1)C(N)=O
notes: also called Compound No. 273
B5: [D-Tyr1,D-Asn2,Thr5,AzaGly7,Arg(Me)9]MS10 (peptide)
peptide: [dY][dN]WNTF[azaGly]L[Arg(Me)]F-NH2
modifications: N-terminus assumed
SMILES: CNC(=N)NCCC[C@H](NC(=O)[C@H](CC(C)C)NC(=O)NNC(=O)[C@H](Cc1ccccc1)NC(=O)[C@@H](NC(=O)[C@H](CC(N)=O)NC(=O)[C@H](Cc1c[nH]c2ccccc12)NC(=O)[C@@H](CC(N)=O)NC(=O)[C@H](N)Cc1ccc(O)cc1)[C@@H](C)O)C(=O)N[C@@H](Cc1ccccc1)C(N)=O
notes: also called Compound No. 298
B6: [D-Tyr1,Thr5,AzaGly7,Arg(Me)9]MS10 (peptide)
peptide: [dY]NWNTF[azaGly]L[Arg(Me)]F-NH2
modifications: N-terminus assumed
SMILES: CNC(=N)NCCC[C@H](NC(=O)[C@H](CC(C)C)NC(=O)NNC(=O)[C@H](Cc1ccccc1)NC(=O)[C@@H](NC(=O)[C@H](CC(N)=O)NC(=O)[C@H](Cc1c[nH]c2ccccc12)NC(=O)[C@H](CC(N)=O)NC(=O)[C@H](N)Cc1ccc(O)cc1)[C@@H](C)O)C(=O)N[C@@H](Cc1ccccc1)C(N)=O
notes: also called Compound No. 297
B7: des(1-5)-GuAmb-[AzaGly7,Arg(Me)9]MS10 (peptide)
peptide: GuAmb-F[azaGly]L[Arg(Me)]F-NH2
SMILES: CNC(=N)NCCC[C@H](NC(=O)[C@H](CC(C)C)NC(=O)NNC(=O)[C@H](Cc1ccccc1)NC(=O)c1ccc(CNC(=N)N)cc1)C(=O)N[C@@H](Cc1ccccc1)C(N)=O
B8: des(1-2)-Acetyl-[AzaGly7,Arg(Me)9]MS10 (peptide)
peptide: Ac-WNSF[azaGly]L[Arg(Me)]F-NH2
SMILES: CNC(=N)NCCC[C@H](NC(=O)[C@H](CC(C)C)NC(=O)NNC(=O)[C@H](Cc1ccccc1)NC(=O)[C@H](CO)NC(=O)[C@H](CC(N)=O)NC(=O)[C@H](Cc1c[nH]c2ccccc12)NC(C)=O)C(=O)N[C@@H](Cc1ccccc1)C(N)=O
notes: also called Compound No. 272
B9: des(1-5)-GuAmb-[Arg(Me)9]MS10 (peptide)
peptide: GuAmb-FGL[Arg(Me)]F-NH2
SMILES: CNC(=N)NCCC[C@H](NC(=O)[C@H](CC(C)C)NC(=O)CNC(=O)[C@H](Cc1ccccc1)NC(=O)c1ccc(CNC(=N)N)cc1)C(=O)N[C@@H](Cc1ccccc1)C(N)=O
B10: [D-Pya(4)1,D-Asn2,Cha3,AzaGly7,Arg(Me)9]MS10 (peptide)
peptide: [d4Pal][dN][Cha]NSF[azaGly]L[Arg(Me)]F-NH2
modifications: N-terminus assumed
SMILES: CNC(=N)NCCC[C@H](NC(=O)[C@H](CC(C)C)NC(=O)NNC(=O)[C@H](Cc1ccccc1)NC(=O)[C@H](CO)NC(=O)[C@H](CC(N)=O)NC(=O)[C@H](CC1CCCCC1)NC(=O)[C@@H](CC(N)=O)NC(=O)[C@H](N)Cc1ccncc1)C(=O)N[C@@H](Cc1ccccc1)C(N)=O
notes: also called Compound No. 306
B11: [D-Pya(3)1,D-Asn2,Cha3,AzaGly7,Arg(Me)9]MS10 (peptide)
peptide: [d3Pal][dN][Cha]NSF[azaGly]L[Arg(Me)]F-NH2
modifications: N-terminus assumed
SMILES: CNC(=N)NCCC[C@H](NC(=O)[C@H](CC(C)C)NC(=O)NNC(=O)[C@H](Cc1ccccc1)NC(=O)[C@H](CO)NC(=O)[C@H](CC(N)=O)NC(=O)[C@H](CC1CCCCC1)NC(=O)[C@@H](CC(N)=O)NC(=O)[C@H](N)Cc1cccnc1)C(=O)N[C@@H](Cc1ccccc1)C(N)=O
notes: also called Compound No. 290
B12: [D-Pya(3)1,D-Tyr2,Cha3,AzaGly7,Arg(Me)9]MS10 (peptide)
peptide: [d3Pal][dY][Cha]NSF[azaGly]L[Arg(Me)]F-NH2
modifications: N-terminus assumed
SMILES: CNC(=N)NCCC[C@H](NC(=O)[C@H](CC(C)C)NC(=O)NNC(=O)[C@H](Cc1ccccc1)NC(=O)[C@H](CO)NC(=O)[C@H](CC(N)=O)NC(=O)[C@H](CC1CCCCC1)NC(=O)[C@@H](Cc1ccc(O)cc1)NC(=O)[C@H](N)Cc1cccnc1)C(=O)N[C@@H](Cc1ccccc1)C(N)=O
notes: also called Compound No. 291

Key:
[1] = target: T1, human OT7T175 (metastin receptor) (human, UniProt Q969F8 1-398); experiment: cell-based or functional assay
T1 sequence (Q969F8 whole entry L364H): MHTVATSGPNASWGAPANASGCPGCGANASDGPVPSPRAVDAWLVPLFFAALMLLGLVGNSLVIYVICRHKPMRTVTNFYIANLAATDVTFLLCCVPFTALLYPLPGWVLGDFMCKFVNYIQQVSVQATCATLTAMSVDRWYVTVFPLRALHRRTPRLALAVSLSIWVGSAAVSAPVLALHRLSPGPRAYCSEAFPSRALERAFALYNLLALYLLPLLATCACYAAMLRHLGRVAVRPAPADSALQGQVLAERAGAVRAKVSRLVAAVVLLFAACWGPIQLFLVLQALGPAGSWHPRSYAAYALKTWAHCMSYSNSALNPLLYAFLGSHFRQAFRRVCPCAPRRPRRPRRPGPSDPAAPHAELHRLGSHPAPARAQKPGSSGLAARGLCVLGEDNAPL

[2] = target: T1, human OT7T175 (metastin receptor); experiment: competition with Cy-5 metastin (40-54) on hOT7T175-CHO cells, FMAT
Experimental: hOT7T175-Expressed CHO cells were cultured in MEM-α medium (nucleic acid-free) containing 10% dialyzed serum. The medium was removed and the adhered cells were washed with PBS. Then, PBS containing 5 mM EDTA was added and the cells were scraped from a flask with a cell scraper.
To each well of a 96-Well Black Clear Bottom Microplate (Applied Biosystems, Inc.), 10 μL of assay buffer containing 1% dimethylsulfoxide was added to examine total binding, 10 μL of 10 μM non-labeled peptide (having the same amino acid sequence as that of labeled one) solution diluted with assay buffer to examine non-specific binding, and 10 μL of a test compound diluted with assay buffer to examine a binding inhibition activity of the test compound, and furthermore, 90 μL each of the cell suspension was dispensed to each well. […] Specific binding is calculated as non-specific binding subtracted from total binding. The binding inhibition activity of a test compound is shown by a ratio of the value obtained by subtracting a measured value in presence of a test compound from the total binding to the specific binding.

[3] = target: T1, human OT7T175 (metastin receptor); experiment: cell-based or functional assay; remark: listed apart in the source

Binder | Ca ion level-increasing activity (FLIPR) [1] | IC50 [2] | Ca ion level-increasing activity (FLIPR, 40 s) [3]
Cyclohexanecarbonyl-NSF[azaGly]L[Arg(Me)]F-NH2 (also called Compound No. 278) [des(1-3)-Cyclohexanecarbonyl-[AzaGly7,Arg(Me)9]MS10] | 2 x Metastin (1-54) | 110 nM | –
B1 | 1 x Metastin (1-54) | 2.1 nM | –
[dY]INSF[azaGly]L[Arg(Me)]F-NH2 (also called Compound No. 240) [des(1)-[D-Tyr2,Ile3,AzaGly7,Arg(Me)9]MS10] | – | 17 nM | 4.9 EC50/MS10 EC50
[dY]SNSF[azaGly]L[Arg(Me)]F-NH2 (also called Compound No. 239) [des(1)-[D-Tyr2,Ser3,AzaGly7,Arg(Me)9]MS10] | – | 120 nM | 6.7 EC50/MS10 EC50
{n‑hexanoyl}-NSF[azaGly]L[Arg(Me)]F-NH2 (also called Compound No. 277) [des(1-3)-n-Hexanoyl-[AzaGly7,Arg(Me)9]MS10] | 2 x Metastin (1-54) | 54 nM | –
B2 | 1 x Metastin (1-54) | 120 nM | –
B3 | 2 x Metastin (1-54) | – | 5.9 EC50/MS10 EC50
YNWNSFGL[Arg(Me)]F-NH2 (also called Compound No. 82) [[Arg(Me)9]MS10] | – | 4.1 nM | 1 EC50/MS10 EC50
B4 | 5 x Metastin (1-54) | 300 nM | –
Y[dN]WNSFGLRF-NH2 [[D-Asn2]MS10] | – | – | 2.7 EC50/MS10 EC50
B5 | 5 x Metastin (1-54) | 0.25 nM | 1.8 EC50/MS10 EC50
B6 | 1 x Metastin (1-54) | 0.93 nM | 5.5 EC50/MS10 EC50
B7 | 2 x Metastin (1-54) | – | 4.9 EC50/MS10 EC50
YNWNSXGLRF (D-Tyr1; Pya(2)6; Arg(Me)9; C-terminal amide, also called Compound No. 281) [[D-Tyr1,Pya(2)6,Arg(Me)9]MS10] | 0.5 x Metastin (1-54) | 230 nM | –
[dY]NWNSF[azaGly]L[Arg(Me)][Phe(4-F)]-NH2 (also called Compound No. 318) [[D-Tyr1,AzaGly7,Arg(Me)9,Phe(4F)10]MS10] | – | 0.99 nM | 2.9 EC50/MS10 EC50
B8 | 2 x Metastin (1-54) | 540 nM | –
[dY]N[d4Pal]NSF[azaGly]L[Arg(Me)]F-NH2 (also called Compound No. 302) [[D-Tyr1,D-Pya(4)3,AzaGly7,Arg(Me)9]MS10] | 2 x Metastin (1-54) | 7.7 nM | –
B9 | 1 x Metastin (1-54) | – | 5 EC50/MS10 EC50
B10 | 2 x Metastin (1-54) | 4.4 nM | –
B11 | 1 x Metastin (1-54) | 1.4 nM | –
B12 | 2 x Metastin (1-54) | 0.41 nM | –
Y[dN][4Pal]NSF[azaGly]L[Arg(Me)]F-NH2 (also called Compound No. 304) [[D-Asn2,Pya(4)3,AzaGly7,Arg(Me)9]MS10] | 3 x Metastin (1-54) | 5 nM | –
[dY]NWNSFGLRF (not fully specified (C-terminus); also: C-terminal thioamide (CSNH2)) [[10Ψ,CSNH,D-Tyr1]MS10] | – | – | 1.5 EC50/MS10 EC50
[dY]NWNSFGL[Arg(Me)]F-NH2 (also: bond 6-7 CONH replaced by NHCO (reversed)) [[6Ψ7,NHCO,D-Tyr1,Arg(Me)9]MS10] | 3 x Metastin (1-54) | – | 3.1 EC50/MS10 EC50
[dY]NWNSFGL[Arg(Me)]F-NH2 (also: bond 6-7 CONH replaced by CH2NH, also called Compound No. 308) [[6Ψ7,CH2NH,D-Tyr1,Arg(Me)9]MS10] | – | 350 nM | 2.6 EC50/MS10 EC50
{4‑imidazoleacetyl}-NSF[azaGly]L[Arg(Me)]F-NH2 (also called Compound No. 323) [des(1-3)-4-Imidazoleacetyl-[AzaGly7,Arg(Me)9]MS10] | 1 x Metastin (1-54) | 280 nM | –
